Positions count from the first letter of the chain named.
T1: human beta-Klotho (human, UniProt Q86Z14 1-1044)
T1 sequence (looked up): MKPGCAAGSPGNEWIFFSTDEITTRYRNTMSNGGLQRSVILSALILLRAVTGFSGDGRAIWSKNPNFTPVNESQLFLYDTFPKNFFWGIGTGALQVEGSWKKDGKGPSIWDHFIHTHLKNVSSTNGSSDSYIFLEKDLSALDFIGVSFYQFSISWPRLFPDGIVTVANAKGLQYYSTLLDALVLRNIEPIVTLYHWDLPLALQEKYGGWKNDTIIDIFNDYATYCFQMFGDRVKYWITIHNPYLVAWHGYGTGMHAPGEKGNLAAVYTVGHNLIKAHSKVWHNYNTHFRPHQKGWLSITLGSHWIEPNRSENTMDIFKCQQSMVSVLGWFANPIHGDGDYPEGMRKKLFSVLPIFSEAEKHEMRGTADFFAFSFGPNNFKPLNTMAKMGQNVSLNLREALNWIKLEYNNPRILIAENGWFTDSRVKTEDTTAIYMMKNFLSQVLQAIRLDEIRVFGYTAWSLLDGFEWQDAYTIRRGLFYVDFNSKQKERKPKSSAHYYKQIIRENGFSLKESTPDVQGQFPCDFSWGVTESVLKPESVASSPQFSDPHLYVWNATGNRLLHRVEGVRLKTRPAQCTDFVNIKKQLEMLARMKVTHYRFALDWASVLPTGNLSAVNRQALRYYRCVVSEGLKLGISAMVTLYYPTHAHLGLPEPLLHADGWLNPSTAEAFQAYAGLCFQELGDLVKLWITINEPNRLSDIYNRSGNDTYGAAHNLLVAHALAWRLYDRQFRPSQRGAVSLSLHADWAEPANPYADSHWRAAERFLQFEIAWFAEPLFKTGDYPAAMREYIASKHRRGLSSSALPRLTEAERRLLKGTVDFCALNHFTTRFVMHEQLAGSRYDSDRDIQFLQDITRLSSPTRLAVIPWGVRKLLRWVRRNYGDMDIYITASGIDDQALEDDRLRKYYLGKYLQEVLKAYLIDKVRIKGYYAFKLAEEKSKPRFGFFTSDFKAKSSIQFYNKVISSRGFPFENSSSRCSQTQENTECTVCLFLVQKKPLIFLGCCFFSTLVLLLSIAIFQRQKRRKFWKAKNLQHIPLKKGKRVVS

B1: Compound 51 (ligand)
chain: HGEGTFTSDVSSYLEEQAAKEFIAWLVRGGGGGGGSGGGGSGGGGSGGGGCHPIPDSSPLLQFGGQVRQRYLYTDDAQQTEAHLEIREDGTVGGAADQSPESLLQLKALKPGVIQILGVKTSRFLCQRPDGALYGSLHFDPEACSFRELLLEDGYNVYQSEAHGLPLHLPGQKSPHRDPAPRGPARFLPLPGLPPALPEPPGILAPQPPDVGSSDPLSLVGCSQGRSPSYES
modifications: Moiety B (HOOC-(CH2)20-CO-gGlu-2XADO-EDA-CO-CH2) on 51C and 222C of fusion polypeptide
B2: Compound 54 (ligand)
chain: B1 chain with C222G, E231C
modifications: Moiety B (HOOC-(CH2)20-CO-gGlu-2XADO-EDA-CO-CH2) on 51C and 231C of fusion polypeptide
B3: Compound 52 (ligand)
chain: B1 chain with C222G, G225C
modifications: Moiety B (HOOC-(CH2)20-CO-gGlu-2XADO-EDA-CO-CH2) on 51C and 225C of fusion polypeptide
B4: Compound 4 (ligand)
chain: B1 chain with K20R, C51K, K107R, K110R, K120R, K173R, C222G, E231K
modifications: Moiety A (HOOC-(CH2)16-CO-gGlu-2XADO) on 51K and 231K of fusion polypeptide
B5: Compound 5 (ligand)
chain: B1 chain with K20R, C51K, K107R, K110R, K120R, K173R, C222K, E231A
modifications: Moiety A (HOOC-(CH2)16-CO-gGlu-2XADO) on 51K and 222K of fusion polypeptide
B6: Compound 63 (ligand)
chain: B1 chain with R28K
modifications: Moiety B (HOOC-(CH2)20-CO-gGlu-2XADO-EDA-CO-CH2) on 51C and 222C of fusion polypeptide
B7: Compound 66 (ligand)
chain: HGEGTFTSDVSSYLEEQAAKEFIAWLVKGGGGSAPGSPAGSPTGSAPGSPCHPIPDSSPLLQFGGQVRQRYLYTDDAQQTEAHLEIREDGTVGGAADQSPESLLQLKALKPGVIQILGVKTSRFLCQRPDGALYGSLHFDPEACSFRELLLEDGYNVYQSEAHGLPLHLPGQKSPHRDPAPRGPARFLPLPGLPPALPEPPGILAPQPPDVGSSDPLSLVGGSQCRSPSYES
modifications: Moiety B (HOOC-(CH2)20-CO-gGlu-2XADO-EDA-CO-CH2) on 51C and 225C of fusion polypeptide
B8: Compound 48 (ligand)
chain: HGEGTFTSDVSSYLEEQAAREFIAWLVRGGGGAQPGAQPGAQPGAQPGAQKHPIPDSSPLLQFGGQVRQRYLYTDDAQQTEAHLEIREDGTVGGAADQSPESLLQLRALRPGVIQILGVRTSRFLCQRPDGALYGSLHFDPEACSFRELLLEDGYNVYQSEAHGLPLHLPGQRSPHRDPAPRGPARFLPLPGLPPALPEPPGILAPQPPDVGSSDPLSLVGKSQGRSPSYES
modifications: Moiety A (HOOC-(CH2)16-CO-gGlu-2XADO) on 51K and 222K of fusion polypeptide
B9: Compound 50 (ligand)
chain: HGEGTFTSDVSSYLEEQAAREFIAWLVRGGGGGGGSGGGGSGGGGSGGGGKHPIPDSSPLLQFGGQVRQRYLYTDDAQQTEAHLEIREDGTVGGAADQSPESLLQLRALRPGVIQILGVRTSRFLCQRPDGALYGSLHFDPEACSFRELLLEDGYNVYQSEAHGLPLHLPGQRSPHRDPAPRGPARFLPLPGLPPALPEPPGILAPQPPDVGSSDPLSLVGGSQGRSPSYESK
modifications: Moiety A (HOOC-(CH2)16-CO-gGlu-2XADO) on 51K and 233K of fusion polypeptide
B10: Compound 70 (ligand)
chain: HGEGTFTSDVSSYLEEQAAKEFIAWLVKGGGGGGGSGGGGSGGGGSGGGGCHPIPDSSPLLQFGGQVRQRYLYTDDAQQTEAHLEIREDGTVGGAADQSPESLLQLKALKPGVIQILGVKTSRFLCQRPDGALYGSLHFDPEACSFRELLLEDGYNVYQSEAHGLPLHLPGQKSPHRDPAPRGPARFLPLPGLPPALPEPPGILAPQPPDVGSSDPLSC
modifications: Moiety B (HOOC-(CH2)20-CO-gGlu-2XADO-EDA-CO-CH2) on 51C and 219C of fusion polypeptide
B11: Compound 69 (ligand)
chain: EGTFTSDVSSYLEEQAAKEFIAWLVKGGGGGGGSGGGGSGGGGSGGGGCHPIPDSSPLLQFGGQVRQRYLYTDDAQQTEAHLEIREDGTVGGAADQSPESLLQLKALKPGVIQILGVKTSRFLCQRPDGALYGSLHFDPEACSFRELLLEDGYNVYQSEAHGLPLHLPGQKSPHRDPAPRGPARFLPLPGLPPALPEPPGILAPQPPDVGSSDPLSLVGCSQGRSPSYES
modifications: Moiety B (HOOC-(CH2)20-CO-gGlu-2XADO-EDA-CO-CH2) on 49C and 220C of fusion polypeptide
B12: Compound 71 (ligand)
chain: HGEGTFTSDVSSYLEEQAAKEFIAWLVKGGGGAQPGAQPGAQPGAQPGAQPCQAPGAQPGAQPGAQPGAQPGAQPGAQPGAQPGAQPGAQPGAQPGAQPGAQPGAQPGAQPHPIPDSSPLLQFGGQVRQRYLYTDDAQQTEAHLEIREDGTVGGAADQSPESLLQLKALKPGVIQILGVKTSRFLCQRPDGALYGSLHFDPEACSFRELLLEDGYNVYQSEAHGLPLHLPGQKSPHRDPAPRGPARFLPLPGLPPALPEPPGILAPQPPDVGSSDPLSLVGCSQGRSPSYES
modifications: Moiety B (HOOC-(CH2)20-CO-gGlu-2XADO-EDA-CO-CH2) on 52C and 282C of fusion polypeptide
B13: Compound 72 (ligand)
chain: B12 chain with C52G, Q53A, A54Q, A61Q, Q62C
modifications: Moiety B (HOOC-(CH2)20-CO-gGlu-2XADO-EDA-CO-CH2) on 62C and 282C of fusion polypeptide
B14: Compound 73 (ligand)
chain: B12 chain with A41Q, Q42C, C52G, Q53A, A54Q
modifications: Moiety B (HOOC-(CH2)20-CO-gGlu-2XADO-EDA-CO-CH2) on 42C and 282C of fusion polypeptide

target: human GLP-1 receptor (human, UniProt P43220 24-463); assay: cell-based or functional assay

GLP-1 activity (EC50, pM); CRE luciferase reporter	Binder
30.7 pM	B1
19 pM	B2
30.2 pM	B3
25.1 pM	B4
23.1 pM	B5
49.1 pM	B6
41.3 pM	B7
14.4 pM	B8
15.4 pM	B9
24.8 pM	B10
> 1000 pM	B11
16.5 pM	B12
16.5 pM	B13
16.6 pM	B14

target: T1, human beta-Klotho; assay: cell-based or functional assay

FGF21 activity (EC50, nM); p-ERK levels	Binder
4.3 nM	B1
3.4 nM	B2
2.4 nM	B3
7.7 nM	B4
12.9 nM	B5
1.2 nM	B6
1 nM	B7
20.4 nM	B8
8.7 nM	B9
> 100 nM	B10
0.53 nM	B11
2.7 nM	B12
2.4 nM	B13
3.6 nM	B14

From US20220016254A1 (BEIJING QL BIOPHARMACEUTICAL, published 2022)
